According to article PMC11832770, “NADH-bound AIF activates the mitochondrial CHCHD4/MIA40 chaperone by a substrate-mimicry mechanism” (The EMBO Journal, 2025):

B5: CHCHD4-SPS (C53S/C55S), full length (natural protein, human, UniProt Q8N4Q1 1-142, looked up)
chain: MSYCRQEGKDRIIFVTKEDHETPSSAELVADDPNDPYEEHGLILPNGNINWNSPSLGGMASGPCGEQFKSAFSCFHYSTEEIKGSDCVDQFRAMQECMQKYPDLYPQEDEDEEEEREKKPAEQAEETAPIEATATKEEEGSS
notes: source: E. coli Rosetta2Gami(DE3), purified (Ni-NTA, PreScission cleavage, subtractive Ni-NTA, Superdex 75); not shown: GB1-6X-His, N-terminal, cleaved

Columns and labels:
[1] = molecular target: T1, CHCHD6, unfolded and reduced (human, UniProt Q9BRQ6 1-235); assay: ITC; 700-750 µM CPC-inactivated CHCHD4 constructs titrated into 50 µM unfolded substrate; 25 mM HEPES pH 7.5, 150 mM NaCl, 1 mM TCEP; 25 °C; conditions: both partners purified
T1 construct: CHCHD6 (MIC25), human, CX9C import substrate; construct from the DNASU Plasmid Repository inserted into pET30a; also called unfolded CHCHD6 substrate; MIC25; source: E. coli Rosetta2Gami(DE3), purified; unfolded by heating at 70 °C for 20 min with TCEP; not shown: GB1-6X-His, N-terminal, cleaved
T1 sequence (looked up): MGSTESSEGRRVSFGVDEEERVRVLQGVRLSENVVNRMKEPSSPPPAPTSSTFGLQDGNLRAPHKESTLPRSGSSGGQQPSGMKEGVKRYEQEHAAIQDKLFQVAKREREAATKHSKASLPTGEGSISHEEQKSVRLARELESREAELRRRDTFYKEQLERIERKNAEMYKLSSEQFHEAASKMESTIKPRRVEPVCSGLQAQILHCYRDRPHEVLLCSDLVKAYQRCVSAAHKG

[2] = molecular target: the molecule itself; assay: SEC; Superdex 75 10/300, 25 mM HEPES pH 7.5, 150 mM NaCl, without reducing agent (also ± 5 mM βME and after 0-10 mM TCEP); 200 µM samples; monomer against disulfide-mediated dimer
[3] = molecular target: T2, ΔN-CHCHD4-SPS (residues 40-142, C53S/C55S) (human, UniProt Q8N4Q1 40-142, C53S | C55S); assay: ITC
T2 sequence: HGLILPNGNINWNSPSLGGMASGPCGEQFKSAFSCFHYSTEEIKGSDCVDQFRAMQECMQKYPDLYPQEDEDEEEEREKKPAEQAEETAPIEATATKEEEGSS

[4] = molecular target: T3, CHCHD4-SPS (C53S/C55S), full length (human, UniProt Q8N4Q1 1-142, C53S | C55S); assay: ITC
T3 sequence: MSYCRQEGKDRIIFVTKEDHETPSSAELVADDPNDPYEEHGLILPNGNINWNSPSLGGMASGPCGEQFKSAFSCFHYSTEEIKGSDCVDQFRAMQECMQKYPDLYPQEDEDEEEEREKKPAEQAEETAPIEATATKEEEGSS

[5] = molecular target: T4, CHCHD4-AIA-A-SPS (I12A/F14A/H20A/C53S/C55S) (human, UniProt Q8N4Q1 1-142, I12A | F14A | H20A | C53S | C55S); assay: ITC
T4 sequence: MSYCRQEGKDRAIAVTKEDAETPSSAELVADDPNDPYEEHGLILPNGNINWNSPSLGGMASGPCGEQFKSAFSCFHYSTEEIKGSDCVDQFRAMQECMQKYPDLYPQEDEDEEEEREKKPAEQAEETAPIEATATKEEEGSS

AIF(104-613)-W196A = molecular target: T5, AIF(104-613)-W196A (human, UniProt O95831 104-613, W196A); assay: crystal structure; AIF(104-613)-W196A-CHCHD4(1-45) chimera, hanging drop, 0.1 M HEPES pH 8, 0.1 M NaCl, 18% PEG3350; CHCHD4 N45 linked to the C-terminus of AIF by …; AIF dimer with N45 resolved on both monomers; conditions: both partners purified
T5 construct: Apoptosis-inducing factor (AIF), human, residues 104-613; Stands only for the AIF half of the crystallised chimera, so that the AIF-CHCHD4 contact can be written as a pair; also called dimer-permissive AIF (104-613) W196A mutant; source: E. coli Rosetta2(DE3), purified, as the AIF part of the chimera m17
T5 sequence (O95831 104-613 W196A): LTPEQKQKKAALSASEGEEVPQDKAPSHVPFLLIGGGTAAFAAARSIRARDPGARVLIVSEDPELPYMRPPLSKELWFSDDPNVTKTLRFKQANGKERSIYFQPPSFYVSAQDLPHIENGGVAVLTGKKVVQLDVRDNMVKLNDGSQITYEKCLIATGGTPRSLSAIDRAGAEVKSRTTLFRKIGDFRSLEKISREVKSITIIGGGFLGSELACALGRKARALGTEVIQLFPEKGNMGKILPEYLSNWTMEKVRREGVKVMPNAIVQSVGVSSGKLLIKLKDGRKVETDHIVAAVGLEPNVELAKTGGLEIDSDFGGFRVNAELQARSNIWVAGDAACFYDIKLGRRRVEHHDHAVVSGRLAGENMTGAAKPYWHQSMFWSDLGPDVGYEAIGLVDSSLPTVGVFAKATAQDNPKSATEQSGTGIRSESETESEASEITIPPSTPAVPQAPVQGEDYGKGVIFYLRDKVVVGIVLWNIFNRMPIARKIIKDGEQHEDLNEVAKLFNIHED

Atto488-AIF(78-613)/NADH [6] = molecular target: T6, Atto488-AIF(78-613)/NADH (human, UniProt O95831 78-613, ATTO 488 (NHS ester) on the N-terminus); assay: MST; CHCHD4 constructs titrated (1.8 nM–15 or 30 µM) into 100 nM Atto488-AIF(78-613) with unlabeled AIF and NADH (pre-formed charge-transfer complex); 25 mM HEPES pH 7.5, 150 mM NaCl, 0.01% Tween-20, 5 mM TCEP; 25 °C; first block of Table 1 (Fig. 1B); conditions: both partners purified
T6 construct: Apoptosis-inducing factor (AIF), human, residues 78-613; also called Atto488-AIF-NADH; Atto488-AIF/NADH
T6 sequence (O95831 78-613): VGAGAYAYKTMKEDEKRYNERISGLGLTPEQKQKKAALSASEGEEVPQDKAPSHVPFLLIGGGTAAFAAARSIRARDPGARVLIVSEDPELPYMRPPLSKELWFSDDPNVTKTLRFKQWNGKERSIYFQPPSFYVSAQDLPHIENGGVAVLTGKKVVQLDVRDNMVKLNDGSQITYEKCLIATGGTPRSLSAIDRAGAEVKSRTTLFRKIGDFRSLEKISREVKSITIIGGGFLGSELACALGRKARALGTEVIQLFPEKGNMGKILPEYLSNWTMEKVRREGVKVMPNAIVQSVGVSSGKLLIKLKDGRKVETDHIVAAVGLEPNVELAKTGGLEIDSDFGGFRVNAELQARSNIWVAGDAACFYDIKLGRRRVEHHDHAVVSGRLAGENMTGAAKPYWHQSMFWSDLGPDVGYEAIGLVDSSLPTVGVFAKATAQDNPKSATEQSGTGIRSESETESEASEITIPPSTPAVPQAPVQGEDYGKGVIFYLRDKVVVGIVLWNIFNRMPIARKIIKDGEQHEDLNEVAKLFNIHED

both import substrates = assay: ITC; 700-750 µM CPC-inactivated CHCHD4 constructs titrated into 50 µM unfolded substrate; 25 mM HEPES pH 7.5, 150 mM NaCl, 1 mM TCEP; 25 °C
Atto488-AIF(78-613)/NADH [7] = molecular target: T6, Atto488-AIF(78-613)/NADH; assay: MST; CHCHD4 interface mutants titrated (1.8 nM–15 or 30 µM) into 100 nM Atto488-AIF(78-613) with unlabeled AIF and NADH; same buffer, 25 °C; third block of Table 1 (Fig. 2A), fitted with a Hill coefficient; conditions: both partners purified
[8] = molecular target: B5; assay: MST; CHCHD4-SPS titrated (15 nM–30 µM) into 100 nM unfolded Atto488-ΔN-CHCHD4-SPS in the presence of AIF(78-613) and NADH (2x stock 30 µM AIF/300 µM NADH); 25 mM HEPES pH 7.5, 150 mM NaCl, 0.01% Tween-20, 5 mM TCEP; 25 °C; a sample with added CHCHD4-N45 showed decreased binding; conditions: both partners purified
[9] = molecular target: T7, CHCHD4-AIA-A-SPS (I12A/F14A/H20A/C53S/C55S) (human, UniProt Q8N4Q1 1-142, I12A | F14A | H20A | C53S | C55S, heat-unfolded and TCEP-reduced (free cysteines). The printed accession E5RGN4 is not among the candidates; the canonical human CHCHD10 entry Q8WYQ3 (used for the AlphaFold model) is taken instead. …); assay: ITC
T7 sequence: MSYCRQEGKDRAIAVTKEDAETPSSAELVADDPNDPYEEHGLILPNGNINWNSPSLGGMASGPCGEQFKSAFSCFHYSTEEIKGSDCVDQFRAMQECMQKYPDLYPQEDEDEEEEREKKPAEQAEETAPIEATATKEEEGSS

[10] = molecular target: T8, CHCHD4-SPS (C53S/C55S), full length (human, UniProt Q8N4Q1 1-142, C53S | C55S, heat-unfolded and TCEP-reduced (free cysteines). The printed accession E5RGN4 is not among the candidates; the canonical human CHCHD10 entry Q8WYQ3 (used for the AlphaFold model) is taken instead. …); assay: ITC
T8 sequence: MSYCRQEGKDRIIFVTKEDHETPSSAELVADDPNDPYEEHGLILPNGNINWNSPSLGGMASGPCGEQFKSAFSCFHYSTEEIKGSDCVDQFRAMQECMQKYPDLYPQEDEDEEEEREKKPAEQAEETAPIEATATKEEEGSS

[11] = molecular target: T9, ΔN-CHCHD4-SPS (residues 40-142, C53S/C55S) (human, UniProt Q8N4Q1 40-142, C53S | C55S, heat-unfolded and TCEP-reduced (free cysteines). The printed accession E5RGN4 is not among the candidates; the canonical human CHCHD10 entry Q8WYQ3 (used for the AlphaFold model) is taken instead. …); assay: ITC
T9 sequence: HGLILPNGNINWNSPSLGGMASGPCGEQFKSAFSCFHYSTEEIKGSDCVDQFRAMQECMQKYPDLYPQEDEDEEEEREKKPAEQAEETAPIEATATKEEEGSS

B1: ΔN-CHCHD4-SPS (residues 40-142, C53S/C55S) (domain or fragment, human, UniProt Q8N4Q1 40-142, looked up)
chain: HGLILPNGNINWNSPSLGGMASGPCGEQFKSAFSCFHYSTEEIKGSDCVDQFRAMQECMQKYPDLYPQEDEDEEEEREKKPAEQAEETAPIEATATKEEEGSS
notes: Folded, as titrant in ITC and in analytical SEC; also called ΔN-SPS; source: E. coli Rosetta2Gami(DE3), purified (Ni-NTA, PreScission cleavage, subtractive Ni-NTA, Superdex 75); not shown: GB1-6X-His, N-terminal, cleaved
binding result [1]: binds

B2: ΔN-CHCHD4 (residues 40-142) (domain or fragment, human, UniProt Q8N4Q1 40-142, looked up)
chain: HGLILPNGNINWNCPCLGGMASGPCGEQFKSAFSCFHYSTEEIKGSDCVDQFRAMQECMQKYPDLYPQEDEDEEEEREKKPAEQAEETAPIEATATKEEEGSS
notes: also called N-terminal truncation mutant; source: E. coli Rosetta2Gami(DE3), purified (Ni-NTA, PreScission cleavage, subtractive Ni-NTA, Superdex 75); not shown: GB1-6X-His, N-terminal, cleaved
binding result [2]: binds

B3: CHCHD6, unfolded and reduced (natural protein)
chain: MGSTESSEGRRVSFGVDEEERVRVLQGVRLSENVVNRMKEPSSPPPAPTSSTFGLQDGNLRAPHKESTLPRSGSSGGQQPSGMKEGVKRYEQEHAAIQDKLFQVAKREREAATKHSKASLPTGEGSISHEEQKSVRLARELESREAELRRRDTFYKEQLERIERKNAEMYKLSSEQFHEAASKMESTIKPRRVEPVCSGLQAQILHCYRDRPHEVLLCSDLVKAYQRCVSAAHKG
Kd [3]: 14.9 µM
Kd [4]: 26.5 µM
Kd [5]: 8.3 µM

B4: CHCHD4-N45 (residues 1-45) (domain or fragment, human, UniProt Q8N4Q1 1-45, looked up)
chain: MSYCRQEGKDRIIFVTKEDHETPSSAELVADDPNDPYEEHGLILP
notes: In the crystal structure (PDB 8VGY) the same residues 1-45 stood linked to the C-terminus of AIF(104-613)-W196A; also called CHCHD4(1-45); source: E. coli Rosetta2Gami(DE3), purified (Ni-NTA, PreScission cleavage, subtractive Ni-NTA, Superdex 75); not shown: GB1-6X-His, N-terminal, cleaved
binding result (AIF(104-613)-W196A): binds
Kd (Atto488-AIF(78-613)/NADH [6]): 0.63 µM

B5
Kd (both import substrates): 18 to 40 µM
Kd (Atto488-AIF(78-613)/NADH [6]): 0.23 µM

B6: CHCHD4, wild type, full length (natural protein, human, UniProt Q8N4Q1 1-142, looked up)
chain: MSYCRQEGKDRIIFVTKEDHETPSSAELVADDPNDPYEEHGLILPNGNINWNCPCLGGMASGPCGEQFKSAFSCFHYSTEEIKGSDCVDQFRAMQECMQKYPDLYPQEDEDEEEEREKKPAEQAEETAPIEATATKEEEGSS
notes: also called CHCHD4-WT; MIA40; source: E. coli Rosetta2Gami(DE3), purified (Ni-NTA, PreScission cleavage, subtractive Ni-NTA, Superdex 75); not shown: GB1-6X-His, N-terminal, cleaved
Kd (Atto488-AIF(78-613)/NADH [6]): 0.58 µM
Kd (Atto488-AIF(78-613)/NADH [7]): 0.18 µM

B7: Atto488-ΔN-CHCHD4-SPS, unfolded (domain or fragment, human, UniProt Q8N4Q1 40-142, looked up)
chain: HGLILPNGNINWNSPSLGGMASGPCGEQFKSAFSCFHYSTEEIKGSDCVDQFRAMQECMQKYPDLYPQEDEDEEEEREKKPAEQAEETAPIEATATKEEEGSS
modifications: ATTO 488 (NHS ester) on the N-terminus
notes: also called unfolded CHCH substrate; unfolded fluorescent substrate; not shown: GB1-6X-His, N-terminal, cleaved
binding result [8]: binds

B8: CHCHD4-AIA-A-SPS (I12A/F14A/H20A/C53S/C55S) (natural protein, human, UniProt Q8N4Q1 1-142, looked up)
chain: MSYCRQEGKDRAIAVTKEDAETPSSAELVADDPNDPYEEHGLILPNGNINWNSPSLGGMASGPCGEQFKSAFSCFHYSTEEIKGSDCVDQFRAMQECMQKYPDLYPQEDEDEEEEREKKPAEQAEETAPIEATATKEEEGSS
notes: CHCHD4/MIA40, human, full length; source: E. coli Rosetta2Gami(DE3), purified (Ni-NTA, PreScission cleavage, subtractive Ni-NTA, Superdex 75); not shown: GB1-6X-His, N-terminal, cleaved
binding result [1]: binds

B9: CHCHD4-AIA (I12A/F14A) (natural protein, human, UniProt Q8N4Q1 1-142, looked up)
chain: MSYCRQEGKDRAIAVTKEDHETPSSAELVADDPNDPYEEHGLILPNGNINWNCPCLGGMASGPCGEQFKSAFSCFHYSTEEIKGSDCVDQFRAMQECMQKYPDLYPQEDEDEEEEREKKPAEQAEETAPIEATATKEEEGSS
notes: CHCHD4/MIA40, human, full length; The methods print F12A/I14A for this mutant; the results print I12A/F14A; also called β-hairpin mutant; source: E. coli Rosetta2Gami(DE3), purified (Ni-NTA, PreScission cleavage, subtractive Ni-NTA, Superdex 75); not shown: GB1-6X-His, N-terminal, cleaved
Kd (Atto488-AIF(78-613)/NADH [7]): 3 µM

B10: CHCHD4-L28D (natural protein, human, UniProt Q8N4Q1 1-142, looked up)
chain: MSYCRQEGKDRIIFVTKEDHETPSSAEDVADDPNDPYEEHGLILPNGNINWNCPCLGGMASGPCGEQFKSAFSCFHYSTEEIKGSDCVDQFRAMQECMQKYPDLYPQEDEDEEEEREKKPAEQAEETAPIEATATKEEEGSS
notes: as for B8
Kd (Atto488-AIF(78-613)/NADH [7]): 0.24 µM

B11: CHCHD10, unfolded and reduced (natural protein)
chain: MPRGSRSAASRPASRPAAPSAHPPAHPPPSAAAPAPAPSGQPGLMAQMATTAAGVAVGSAVGHVMGSALTGAFSGGSSEPSQPAVQQAPTPAAPQPLQMGPCAYEIRQFLDCSTTQSDLSLCEGFSEALKQCKYYHGLSSLP
Kd [9]: 4.5 µM
Kd [10]: 20.4 µM
Kd [11]: 6.4 µM
